Measured values taken from patent US7803749B2, “Peptide inhibitors of MKK7 kinase binding to insulin binding proteins” (Xigen SA, priority 2002, dated 2010).
“Also recorded” adds a separate entry of the source. Residues, ends and D or L forms follow the SMILES beside them.

Legend:
[1] = tested on: developing rat cortical neurons; assay: Incubation of developing rat cortical neurons with peptide (necrotic bodies, neuron number); settings: 1 μM, vs control neurons, FIGS. 4A-4F
[2] = target: T1, MKK7 binding to IB1 (SH3 domain) (Homo sapiens, UniProt Q9UQF2); assay: Pull-down of 35S-labelled MKK7 with GST-SH3 domain of IB1; settings: FIG. 2
T1 construct: the SH3 domains of IB1 and IB2 were subcloned using PCR into the pGEX-4T1 vector in frame with the GST; made in house; host or cells: E. coli
T1 sequence (Q9UQF2 488-549 limits assumed): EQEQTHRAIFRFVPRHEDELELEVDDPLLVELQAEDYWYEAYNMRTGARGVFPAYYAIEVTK
Procedure: (§1) Effects of the αSH3 peptide on JNK biological activities were then studied. […] In the pull-down experiments, the SH3 domains of IB1 and IB2 were subcloned using PCR into the pGEX-4T1 vector in frame with the GST (Pharmacia). The recombinant proteins were produced in E. Coli. Purification was performed in native conditions using a glutathione-agarose column (Pharmacia). ^35S-labelled MKK7 was then used in classical pull-down experiments.

[3] = target: T2, MKK7 binding to IB2 (SH3 domain) (Homo sapiens, UniProt Q13387); assay: Pull-down of 35S-labelled MKK7 with GST-SH3 domain of IB2; settings: FIG. 2
T2 construct: the SH3 domains of IB1 and IB2 were subcloned using PCR into the pGEX-4T1 vector in frame with the GST; made in house; host or cells: E. coli
T2 sequence (Q13387 604-665 limits assumed): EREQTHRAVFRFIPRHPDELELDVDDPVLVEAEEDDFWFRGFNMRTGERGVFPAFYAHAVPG
Procedure: as §1

Row | Compound | Toxicity on developing neurons (appearance of residual necrotic bodies) [1] | Blocking of the binding of MKK7 to IB1 [2] | Blocking of the binding of MKK7 to IB2 [3]
1 | CSCC[C@H](NC(=O)CNC(=O)[C@@H](NC(=O)[C@H](CO)NC(=O)[C@@H](NC(=O)[C@H](CO)NC(=O)[C@H](CCCNC(=N)N)NC(=O)[C@H](CCCNC(=N)N)NC(=O)[C@H](CCCNC(=N)N)NC(=O)[C@H](CCC(N)=O)NC(=O)[C@H](CCCNC(=N)N)NC(=O)[C@H](CCCNC(=N)N)NC(=O)[C@H](CCCCN)NC(=O)[C@H](CCCCN)NC(=O)[C@@H](N)CCCNC(=N)N)C(C)C)C(C)C)C(=O)N1CCC[C@H]1C(=O)N1CCC[C@H]1C(=O)N[C@@H](CO)C(=O)N1CCC[C@H]1C(=O)N[C@@H](CCCNC(=N)N)C(=O)N1CCC[C@H]1C(=O)O [TAT-αSH3] (H-RKKRRQRRRSVSVGMPPSPRP-OH) | lacked residual necrotic bodies; also recorded: not toxic | – | –
2 | αSH3: consensus αSH3 sequence SVSVGMPPSPRP, 12 aa | – | efficiently blocks | efficiently blocks
